IC50 (neutralization, IIF infection foci count, InCellAnalyzer) data for 1 molecule are collected here from patent US20190185546A1.

The target of experiment [1] is HSV-2 (Herpes Simplex Virus type 2; antigen recognised not identified) (Herpes simplex virus 2). Nature of the experiment: cell-based or functional assay.
Experiment [2] has as its target HSV-1 (Herpes Simplex Virus type 1; antigen recognised not identified) (Herpes simplex virus 1). Nature of the experiment: cell-based or functional assay.

B1: Fab Ex2 (IgG1 Fab format) (Fab, V domains shown)
VH: LESGGGVVQPGRSLRLSCAASGFTFTTFAMHWVRQAPGKGLEWLAFISYDGSNKYYADSVKGRFTISRDNSKNTLYLQMNSLRAEDTSIYYCAREVWNYADYWGQGALVTVSS
VL: ELTQSPGTLSSSPGHRATLSCKASAPLGSNHMAWYQQKPGQAPRLLIYGASTRATGVPARFTGSGSGTDFTLTISSLQPEDFATYYCQQANSFPRTFGQGTKVEIK
As for B1, the results for the IC50 (neutralization, IIF infection foci count, InCellAnalyzer) in experiment [1] and in experiment [2] were 0.2 µg/mL and 0.7 µg/mL, respectively.
